In patent US20240270839A1:

Key:
[1] = target: recombinant 6xHis tagged human CLDN18.2 (human); assay: SPR (Biacore); same values as Table 30
[2] = target: recombinant 6xHis tagged human CLDN18.2 (human); assay: SPR (Biacore T200), His tagged CLDN18.2 amine-coupled on CM5, antibody as analyte, 1:1 fit
[3] = target: human CLDN18.2 as used in the Octet assay (human); assay: Octet (BLI); format not described

Substance: IMAB362 (Zolbetuximab) (antibody)
- Kd [1]: 0.115 µM
- Kd [2]: 0.115 µM
- Kd [3]: 0.0016 µM
